Residue numbers refer to the chain shown, from its start. Values joined by “and” are separate entries in the source; they are usually repeats but may differ in a detail not shown here. Identical values can stand only once. Like-named read-outs stand apart in the source and are kept apart here.
Assays:
[1] = target: T1, epidermal growth factor receptor (EGFR) on tumor cells (human, UniProt P00533 25-1210); experiment: flow cytometry, soluble monomeric scFv on A431 cells, 4 C, equilibrium
T1 construct: whole, on cells; also called EGFR on A431 cells; EGFR on MDAMB468 cells
Method: (§1) Cell binding was performed at 4° C. in FACS buffer in a volume calculated to ensure fivefold scFv excess and for a duration calculated to ensure that the reaction had reached equilibrium. After two washes with 200 μL of FACS buffer, cell-bound scFv was detected by the addition of 100 μl of 1 μg/ml biotinylated His probe (Santa Cruz Biotech.) and a 1:800 (v/v) dilution of streptavidin-PE (Biosource). After incubation at 4° C. for 30 min, the cells were washed twice and resuspended in PBS containing 4% (v/v) paraformaldehyde. Fluorescence was measured by flow cytometry in a FACS LSRII instrument (Becton Dickinson), and the median fluorescence intensity (MFI) values were fit to the equation: […]
(§2) To generate soluble scFv, the scFv genes were subcloned from pYD2 into the bacterial secretion vector pSYN1 (Schier et al (1995) Immunotechnology, 1:73-81), which directed the scFv to the bacterial periplasm using the pelB leader. The scFv was harvested from the bacterial periplasm and purified by immobilized metal-affinity chromatography as described (Id.). […] To ensure that the KD of monovalent scFv was determined, gel-filtration chromatography was performed as described (Schier and Marks (1996) Hum. Antibodies Hybridomas: 7: 97-105) to separate native monovalent scFv from dimeric scFv and aggregated scFv. scFv was used for cellular KD measurements immediately after gel-filtration.

[2] = target: T2, A431 cells expressing EGFR (Homo sapiens, UniProt P00533); experiment: Measurement of scFv affinity for cells expressing EGFR (flow cytometry); type: binding; conditions: soluble monovalent scFv, 4° C.
T2 construct: Human squamous carcinoma A431 cells expressing EGFR; endogenous in cells; host or cells: A431 epidermal (squamous) carcinoma cells
Method: Human squamous carcinoma A431 cells expressing EGFR were grown to 80-90% confluence in RPMI medium supplemented with 10% fetal bovine serum and harvested by trypsinization. […] Cell binding was performed at 4° C. in FACS buffer in a volume calculated to ensure fivefold scFv excess and for a duration calculated to ensure that the reaction had reached equilibrium. After two washes with 200 μL of FACS buffer, cell-bound scFv was detected by the addition of 100 μl of 1 μg/ml biotinylated His probe (Santa Cruz Biotech.) and a 1:800 (v/v) dilution of streptavidin-PE (Biosource). After incubation at 4° C. for 30 min, the cells were washed twice and resuspended in PBS containing 4% (v/v) paraformaldehyde. Fluorescence was measured by flow cytometry in a FACS LSRII instrument (Becton Dickinson), and the median fluorescence intensity (MFI) values were fit to the equation:
MFI=MFImin+MFImax([Ab]/(KD+[Ab])
using the software program Kaleidagraph as described previously (Benedict et al. (1997) J. Immunol. Methods, 201: 223-231).

[3] = target: T3, MDAMB468 cells expressing EGFR (Homo sapiens, UniProt P00533); experiment: Immunoliposome binding affinity for cells expressing EGFR (flow cytometry); conditions: read-out: Apparent KD of immunoliposomes
T3 construct: Human breast cancer MDAMB468 cells expressing EGFR; endogenous in cells; host or cells: MDAMB468 breast carcinoma cells
Method: Human breast cancer MDAMB468 cells expressing EGFR were grown to 80-90% confluence in L15 medium supplemented with 10% FBS and harvested by trypsinization. ILs labeled with DiIC18(3)-DS were incubated overnight with 10^4 cells at concentrations of IL ranging from 0.31-2.5 nM. The concentration of IL was converted from the concentration of phospholipid on the basis of the approximate number of phospholipid molecules per liposome (80,000). Cell binding was performed at 4° C. in FACS buffer in adequate volume to ensure a fivefold excess of ILs and that the reaction had come to equilibrium. After two washes with 200 μl of FACS buffer, the amount of cell-bound ILs was quantified by flow cytometry in a FACS LSRII (Becton Dickinson). Data analysis was the same as for the measurement of scFv KD.

MDAMB231 cells = experiment: Uptake of EGFR immunoliposomes into cells of lower EGFR density; type: cell-based, human; conditions: for IL uptake into MDAMB231 cells compared to A431 cells: all scFv densities studied, 480,000 EGFR/cell
Method: (§3) scFv-mediated internalization of fluorescent immunoliposomes was analyzed and quantified by microscopy and flow cytometry. C10 scFv fragments were inserted into liposomes at ratios of 5, 10, 15, 30 and 60 μg scFv/μmol phospholipid (Mamot et al. (2003) Cancer Res. 63: 3154-3161). scFv densities of 16, 32, 48, 96 and 192 scFv/liposome were calculated on the basis of the molecular mass of scFv (26 kDa) and the approximate number of phospholipid molecules/liposome (80,000). The conjugation technology for scFv to Mal-PEG-DSPE is remarkably reproducible with an efficiency of 77.3(±3.1) % (range 75-82% over six batches) (Nellis et al. (2005) Biotechnol. Prog. 21: 205-220). […] For microscopy studies, 150,000 cells were incubated with 50 μM PL of untargeted and EGFR-targeted ILs labeled with DiIC18(3)-DS in a 12-well plate for 2 h at 37° C., followed by washing with PBS and further incubation at 37° C. for 2 h. The cells were then analyzed by using an inverted fluorescence microscope (Nikon Eclipse, TE300) with a 540/25 nm band-pass filter for excitation and a long-pass filter at 565 nm for emission. For quantitative uptake of immunoliposomes, 250,000 cells were incubated with EGFR-targeted ILs labeled with ADS645 in a six-well plate for 2 h at 37° C., washed with PBS, removed in trypsin solution and fluorescence quantified with a FACSAria instrument (Beckton Dickinson). To determine the effect of EGF competition on internalization of EGFR-targeted ILs, IL internalization was quantified as described above, except that 50 μM targeted ILs and cells were incubated with EGF concentrations ranging from 0.2-25 nM. ANOVA (analysis of variance) was used to analyze the statistical differences of the quantified uptake.
To determine the impact of receptor density on IL uptake, we measured the uptake of the different ILs into MDAMB231 cells which express 480,000 EGFR/cell as determined by flow cytometry using Quantum Simply Cellular anti-Human IgG beads (Bangs Laboratories Inc.). […] Uptake into MDAMB231 cells increased with increasing scFv density, reaching a plateau at an IL scFv density of 74 scFv/IL for P2/4 scFv and at 37 scFv/IL for 2224 scFv (FIG. 6C).

biotinylated EGFR-ECD = target: T4, biotinylated EGFR-ECD (Homo sapiens, UniProt P00533); experiment: Yeast-displayed scFv affinity for biotinylated EGFR-ECD by flow cytometry; type: binding; conditions: scFv displayed on yeast; EGFR-ECD only 10% immunoreactive; read-out: KD for biotin-EGFR ECD
T4 construct: Recombinant EGFR-ECD was expressed in HEK293 cells; biotin (chemical label, NHS-sulfo-LC-biotin on amines); made in house; host or cells: HEK293 cells
Method: (§4) Generally, six to eight different concentrations of biotinylated EGFR were used to span a range of concentrations from ten times above to ten times below the KD. Incubation volumes, times and yeast numbers were chosen to ensure that the studies were done in at least fivefold antigen excess and that equilibrium had been achieved (Razai et al. (2005) J. Mol. Biol. 351: 158-169). For anti-EGFR scFv, […] in 50 μl were incubated with biotinylated EGFR-ECD for 1 h at room temperature. […] Only yeast displaying scFv (as determined by binding of SV5 mAb) were gated for affinity measurements.

[4] = system: EGFR-over-expressing MDAMB468 cells; experiment: Internalization/uptake of anti-EGFR immunoliposomes (microscopy, flow cytometry); type: cell-based, Human; conditions: 74 scFv/liposome; for endocytosis of ILs by fluorescence microscopy: MDAMB468
Method: as §3

[5] = target: MDAMB468 cells expressing intact EGFR (Homo sapiens, UniProt P00533); conditions: EGF competition
[6] = target: T1, epidermal growth factor receptor (EGFR) …; experiment: flow cytometry, soluble scFv on A431 cells; this end is tied to P3/5 through the KD values of Table 2
Method: as §1, with “After” for “Cell binding was performed at 4° C. in FACS buffer in a volume calculated to ensure fivefold scFv excess and for a duration calculated to ensure that the reaction had reached equilibrium. After”
as §2

[7] = target: T5, biotinylated recombinant EGFR-ECD (UniProt P00533 25-645, limits assumed, biotinylated with NHS-sulfo-LC-biotin); experiment: flow cytometry, yeast-displayed scFv, biotinylated EGFR-ECD, equilibrium
T5 construct: extracellular domain; The claims speak of human EGFR; also called biotin-EGFR ECD; biotinylated EGFR
Method: as §4

B1: anti-EGFR scFv C10 (scFv, V domains shown)
VH: EVQLVQSGAEVKKPGSSVKVSCKASGGTFSSYAISWVRQAPGQGLEWMGGIIPIFGTANYAQKFQGRVTITADESTSTAYMELSSLRSEDTAVYYCAREEGPYCSSTSCYGAFDIWGQGTLVTVSS
VL: QSVLTQDPAVSVALGQTVKITCQGDSLRSYFASWYQQKPGQAPTLVMYARNDRPAGVPDRFSGSKSGTSASLAISGLQSEDEADYYCAAWDDSLNGYLFGAGTKLTVL
notes: Soluble monomeric scFv from pSYN1 in E. coli (Ni-NTA purified, detected with a His probe) in the assays on cells; also called C10 scFv; wild-type C10 scFv
Kd [1]: 264 nM

B2: P2/4: C10 scFv mutant, Gly to Ala in VH CDR3 and Pro to Ala in VL FR1; SEQ ID NO:5 (protein)
scFv: B1 VH with G111A
modifications: Variable chain of single chain antibody.
Kd [2]: 15 nM and 15.4 nM
Kd ([3]; 37 scFv/liposome): 2.04 nM
Kd ([3]; 74 scFv/liposome): 0.4 nM
Kd ([3]; 148 scFv/liposome): 0.18 nM
IL scFv density at which uptake into MDAMB231 cells reaches a plateau (MDAMB231 cells): 74 scFv/IL
IL uptake into MDAMB231 cells compared to A431 cells (MDAMB231 cells): significantly less uptake
Kd (biotinylated EGFR-ECD): 1800 nM
IL uptake greater compared to C10 ([4]; IL 0.63 nM, flow cytometry): 24%
endocytosis of ILs by fluorescence microscopy [4]: endocytosed efficiently

B3: P3/5: C10 scFv mutant from the P3 sort gate; SEQ ID NO:11 (protein)
scFv: B1 VH with M48V, T69K, T76A
modifications: Variable chain of single chain antibody.
Kd [2]: 88 nM

B4: 2224: combined mutant scFv: P2/2 with the VH CDR3 Gly to Ala mutation from P2/4; SEQ ID NO:17 and 24 (protein)
scFv: B1 VL with F31L, M47T
modifications: Variable chain of single chain antibody.
IL scFv density at which uptake into MDAMB231 cells reaches a plateau (MDAMB231 cells): 37 scFv/IL
IL uptake into MDAMB231 cells compared to A431 cells (MDAMB231 cells): significantly less uptake
difference in IL uptake versus ILs from C10 or P2/4 scFv ([4]; IL 0.63 nM, flow cytometry): no statistically significant difference
endocytosis of ILs by fluorescence microscopy [4]: endocytosed efficiently
IC50 of ILs less than the scFv IC50 [5]: 20 fold

B5: C10 mutant scFv P3/5 (scFv, V domains shown)
VH: B1 VH with M48V, T69K, T76A
VL: B1 VL with F31L, M47T
notes: soluble His-tagged monomeric scFv on cells
fold improvement in affinity compared to C10 scFv [6]: 3 to 18 fold
Kd [1]: 88.2 nM

B6: combined C10 mutant scFv 2224 (scFv, V domains shown)
VH: B1 VH with S35G, T57I, T78S, G111A
VL: B1 VL with S79P
notes: P2/2 with the VH CDR3 Gly to Ala substitution of P2/4; soluble His-tagged monomeric scFv on cells
Kd [7]: 600 nM

B7: C10 mutant scFv P2/2 (scFv, V domains shown)
VH: B1 VH with S35G, T57I, T78S
VL: B1 VL with S79P
notes: as for B5
Kd [7]: 1800 nM
Kd [1]: 17 nM
